Laboratory results published in publication PMC10057929, “Improvement of Laccase Production by Thielavia terrestris Co3Bag1. Enhancing the Bio-Catalytic Performance of the Native Thermophilic TtLacA via Immobilization in Copper Alginate Gel Beads” (Journal of Fungi, 2023).

Substrate: CCn1c(=NN=c2sc3cc(S(=O)(=O)O)ccc3n2CC)sc2cc(S(=O)(=O)O)ccc21
Test: purified protein
Assay type: biochemical, Thermothielavioides terrestris
Conditions: free enzyme, pH 3.0 glycine-HCl, 65 °C, 5 min, 0.05 to 5 mM ABTS

B1: TtLacA (Thermothielavioides terrestris NRRL 8126) (protein)
chain: MGLLRGLLESVSETLELFYTATATLTQESTNGLSLLGTLLARVLPLFLTNNPLPDGFPWGSLSDTNTNPYVDYPRTGVVRYYDFTVSRGIIAPDGYQRDVLLVNGAYPGPLIEANWGDTIVVTVHNNISNPEDGTTIHWHGFLQRETPWADGAPGISQCPIPPGSSYTYEFVASLFGTSWYHAHYSAQYAGGVVGPIVVYGPTHAKYDVDLGPIMLSDWYHREYFDIVKELLSPNASPRVLSDNNLIDGKMNFDCSTVAPGDNTPCTDRAGISKFKFQTGKTHRLRLINSGADGVQRFSIDQHTLTVIAEDFVPVKPYNTTVVTLGVGQRTDVLVTANAGPPDSLFWMRSNLTTCSPARQPNALAAVYYDKADTSATPSSRPWDVPDPGTCANDPLDISEPLYPIPLPKPAITQTMDIELFKNASNVTLWKFNGVSMRTDYNSPVILLANQGNFSYPPEWNVVNYQQTTAIRIIINNKGPGPHPMHLHGHNFYILHEGPGEWDGTIVRPSNPMRRDVELVRGNGHLVIQFDGAPGVWAFHCHIAWHSSGGFLASLLVQPHKVQQMHLPGDVEQNCRAWDLWTKHNVVDQIDSGT
notes: native secreted enzyme purified from culture supernatant, free (not immobilised); 70 kDa by SDS-PAGE; MS/MS peptides QPNALAAVYYDK, YDVDLGPIMLSDWYHR, VLSDNNLIDGK, LINSGADGVQR
Km: 260 µM | kcat: 13.73 s⁻¹
